Test [1] addresses recombinant mesothelin expressed on human epidermoid epithelial A431 cells (human) (UniProt Q13421).
Test [2] shares this target. This is another data set of the same source.
For test [3], the target named is recombinant mesothelin tagged with the Fc fragment of rabbit IgG (human) (UniProt Q13421). The test can be described thus: flow cytometry on cells; inhibition: soluble MUC16 pre-incubated with meso-Fc (25 nM) for 1 h at 4°C; read out as meso-Fc left to bind OVCAR-3 cells.
Chain of recombinant mesothelin tagged with the Fc fragment of rabbit IgG (human) (Q13421 other isoform, or with tags, fused parts or gaps): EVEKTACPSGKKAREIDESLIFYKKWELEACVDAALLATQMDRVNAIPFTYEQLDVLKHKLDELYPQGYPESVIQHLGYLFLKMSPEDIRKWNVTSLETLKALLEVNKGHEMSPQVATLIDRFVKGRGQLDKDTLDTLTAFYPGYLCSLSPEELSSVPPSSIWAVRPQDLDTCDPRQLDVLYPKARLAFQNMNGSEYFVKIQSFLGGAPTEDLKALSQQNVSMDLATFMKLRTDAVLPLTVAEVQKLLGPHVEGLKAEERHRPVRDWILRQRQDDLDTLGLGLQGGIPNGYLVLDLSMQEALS

Chain of recombinant mesothelin expressed on human epidermoid epithelial A431 cells (human) (Q13421 other isoform, or with tags, fused parts or gaps): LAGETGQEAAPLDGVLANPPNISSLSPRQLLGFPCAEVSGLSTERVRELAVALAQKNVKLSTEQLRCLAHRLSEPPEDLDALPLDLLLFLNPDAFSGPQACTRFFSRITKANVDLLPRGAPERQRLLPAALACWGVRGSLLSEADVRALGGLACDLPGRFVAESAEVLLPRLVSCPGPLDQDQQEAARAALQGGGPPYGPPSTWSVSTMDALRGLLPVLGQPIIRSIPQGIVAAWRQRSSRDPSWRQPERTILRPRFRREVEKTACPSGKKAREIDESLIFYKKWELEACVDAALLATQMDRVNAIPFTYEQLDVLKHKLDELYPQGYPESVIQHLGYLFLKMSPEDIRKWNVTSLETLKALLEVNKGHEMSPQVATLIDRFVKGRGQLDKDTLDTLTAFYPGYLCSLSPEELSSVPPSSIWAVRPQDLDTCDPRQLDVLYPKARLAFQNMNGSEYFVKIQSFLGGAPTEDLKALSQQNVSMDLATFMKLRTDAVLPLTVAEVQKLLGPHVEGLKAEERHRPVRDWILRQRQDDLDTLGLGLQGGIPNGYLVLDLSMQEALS

As for “MUC16 expressed on the surface of the ovarian tumor cell line OVCAR-3, Q8WXI7 1-14507”, the heterotypic doublets between MUC16 positive #12 cells and A431-Meso+ cells in PBS with 1% BSA, percent of total live cells, flow cytometry in test [1] came out at 25%. Besides, the reduction of heterotypic cell adhesion between #12 and A431-Meso+ cells by ascites of EOC patients (#15 and #24), flow cytometry in test [2] was found to be 33%.

With “native MUC16 partially purified from OVCAR-3 cell culture media, Q8WXI7 1-14451”, the percent inhibition of meso-Fc binding to OVCAR-3 cells (MUC16 at half the molar amount of meso-Fc) in test [3] was found to be 80%.

(Values after publication PMC1635730.)
